Assay results reported in patent US20150098939A1 (Sanofi, published 2015).

Assays:
[1] = target: T1, hGPVI-hFc fusion protein (human); experiment: DELFIA competition assay: Fab preincubated with GPVI-Fc (3 µg/ml), binding to collagen-coated plate, Test 1
T1 construct: also called GPVI-Fc; human GPVI-Fc fusion protein
Description: (§1) Collagen coated 384 well plates (Pierce) were blocked with 3% BSA for 2 h. Increasing concentrations of IgG or its corresponding Fab fragment produced by Ficin cleavage (0.3-20 μg/ml) were incubated with recombinant GPVI (Fc-fusion protein of the extracellular GPVI domain; 3 μg/ml) for 30 min. The GPVI-IgG mixture was added to collagen coated plates and incubated for 1 h at RT. Next, 384 well plates were washed (DELFIA wash buffer, Perkin Elmer) five times and Eu-labelled anti-human IgG (100 ng/ml Perkin Elmer) was added. Following 1 h incubation at room temperature plates were washed again five times, enhancement solution (Perkin Elmer) was added and incubated for 10 min. Fluorescence was detected at 360/612 nm using a Tecan Ultra reader.

[2] = target: T1, hGPVI-hFc fusion protein; experiment: DELFIA competition assay: Fab preincubated with GPVI-Fc (3 µg/ml), binding to collagen-coated plate, Test 2
Description: as §1

B1: Fab produced by Ficin cleavage of IgG from hybridoma clone 390 (Fab, V domains shown)
VH: QVQLKESGPGLVAPSQSLSITCTVSGFSLTGYGVNWVRQPPGKGLEWLGMIWGDGSTDYNSTLKSRLSISKDNSKSQVFLKMNSLQTDDTARYYCARDLPMDYWGQGTSVTVSS
VL: DIQMTQSPSSLSASLGGKVTITCKASQDINKYIAWYQHKPGKGPSLLIHYTSTLQPGIPSRFSGSGSGRDYSFSISNLEPEDIATYYCLQYANLLTFGGGTKLEIKR
notes: Proteolytic Fab; also called Fab (Ficin cleavage); proteolytic Fab fragment
[1]
  IC50: 1.3 µg/mL
[2]
  IC50: 1.1 µg/mL
